{
  "source": "patent US20250027068",
  "proteins": {"B1": {"name": "PRT-60 (protein)", "chain": "MANQEIRYSEVTPYHVTSVWTKGVTPPANFTQGEDVFHAPYVANQGWYDITKTFNGKDDLLCGAATAGNMLHWWFDQNKDQIKRYLEEHPEKAKINFNGEQMFDVKEAIDTKNHQLDSKLFEYFKEKAFPYLSTKHLGVFPDHVIDMFINGYRLSLTNHGPTPVKEGSKDPRGGIFDAVFGRGDQSKLLTSRHDFKEKNLKEISDLIKKELTEGKALGLSHTYANVRINHVINLWGADFDSNGNLKAIYVTDSDSNASIGMKKYFVGVNSAGKVAISAKEIKEDNIGAQVLGLFTLSTGQDSWNQTN"}, "B2": {"name": "PRT-4 (protein)", "chain": "MANQEIRYSEVTPYHVTSVWTKGVTPPANFTQGEDVFHAPYVANQGWYDITKTFNGKDDLLCGAATAGNMLHWWFDQNKEQIERYLKEHPEKQKINFNGEQMFDVKEAIDTKDSQLDSKLFEYFKEKAFPYLSTKHLGVFPDHVIDMFINGYRLSLTNHGPTPVKEGSKDPRGGIFDAVFTRGDQSKLLTSRHDFKEKNLKEISDLIKKELTEGKALALSHTYANVRINHVINLWGADFDSNGNLKAIYVTDSDSNASIGMKKYFVGVNSAGKVAISAKEIKEDNIGAQVLGLFTLSTGQDIWNQTN"}, "B3": {"name": "PRT-61 (protein)", "chain": "MANQEIRYSEVTPYHVTSVWTKGVTPPANFTQGEDVFHAPYVANQGWYDINKTFNGKDDLLCGAATAGNMLHWWFDQNKEYIKRYLEEHPEKQKINFNGEQMFDVKEAIDTKNHQLDSKLFEYFKEKAFPYLSTKHLGVFPDHVLDMFINGYRLSLTNHGPTPVKEGSKDPRGGIFDAVFTRGDQSKLLTSRHDFKEKNLKEISDLIKKELTEGKALGLSHTYANVRINHVINLWGADFDSNGNLKAIYVTDSDSNASVGMKKYFVGVNSAGKVAISAKEIKEDNIGAQVLGLFTLSTGQDSWNQTN"}, "B4": {"name": "PRT-62 (protein)", "chain": "MANQEIRYSEVTPYHVTSVWTKGVTPPANFTQGEDVFHAPYVANQGWYDITKTFNGKDDLLCGAATAGNMLHWWFDQNKDQIKRYLEEHPEKQKINFNGEQMFDVKEAIDTKNHQLDSKLFEYFKEKAFPYLSTKHLGVFPDHVIDMFINGYRLSLTNHGPTPVKEGSKDPRGGIFDAVFGRGDQSKLLTSRHDFKEKNLKEISDLIKKELTEGKALGLSHTYANVRINHVINLWGADFDSNGNLKAIYVTDSDSNASIGMKKYFVGVNSAGKVAISAKEIKEDNIGAQVLGLFTLSTGQDSWNQTN"}, "B5": {"name": "PRT-63 (protein)", "chain": "MANQEIRYSEVTPYHVTSVWTKGVTPPANFTQGEDVFHAPYVANQGWYDITKTFNGKDDLLCGAATAGNMLHWWFDQNKEQIKRYLKEHPEKQKINFNGEQMFDVKEAIDTKNHQLDSKLFEYFKEKAFPYLSTKHLGVFPDHVLDMFINGYRLSLTNHGPTPVKEGSKDPRGGIFDDVFTRGDQSKLLTSRHDFKEKNLKEISDLIKKELTEGKALGLSHTYANVRINHVINLWGADFDSNGNLKAIYVTDSDSNASIGMKKYFVGVNSAGKVAISAKEIKEDNIGAQVLGLFTLSTGQDSWNQTN"}, "B6": {"name": "PRT-64 (protein)", "chain": "MANQEIRYSEVTPYHVTSVWTKGVTPPANFTQGEDVFHAPYVANQGWYDITKTFNGKDDLLCGAATAGNMLHWWFDQNKDQIDRYLEEHPEKQKINFNGEQMFDVKEAIDTKNHQLDSKLFEYFKEKAFPYLSTKHLGVFPDHVIDMFINGYRLSLTNHGPTPVKEGSKDPRGGIFDAVFTRGDQSKLLTSRHDFKEKNLKEISDLIKKELTEGKALGLSHTYANVRINHVINLWGADFDSNGNLKAIYVTDSDSNASIGMKKYFVGVNSAGKVAISAKEIKEDNIGAQVLGLFTLSTGQDSWNQTN"}, "B7": {"name": "PRT-678 (protein)", "chain": "MQITTVWTKGVTPLTPEQFRYNNEEVIHAPYKAGQGWYDITKVFDGKDNLLCGAATAGNMLHWWFDQNKTEIEAYLSKHPEKQKIIFNNQELFDLKRAIDDKDSQTNSQLFNYFRDKAFPNLSARQLGVMPDLVLDMFINGYYLNVFKTQSTDVNRPYQDPDKRGGIFDDVFGKGDQTTLLTARHDLKNLGLEDISTIIKQELRNGRALALSHTYANVSISHVINLWGADFNAEGNLSAIYVTDSDANNSIGMKKYKVGYNAHGRVAISAKKIEGENIGAQVLGLFTLSSGKDIWQKLSLEHHHHHH"}, "B8": {"name": "PRT-572 (protein)", "chain": "MANQEIRYSEATPSHITSVWTKGVTPPTQFIQNEDVLHAPYIANQGWYDITKTFNGKDDLLCGAATAGNMLHWWFDQNKEQIENYLKKHPEKQKINFNGEQMFDVKEAIDTKDSQTDSALFSYFKDKAFPYLSTKHLGVFPDHVIDMFINGYRLSLTNHGPTPVKEQTKDPRGGIFDAVFTRGDQSKLLTSRHDFKEKTLNEISQLIKQELTEGKALGLSHTYANVRINHVINLWGADFNAEGNLEAIYVTDSDSNASIGMKKYYVGVNSAGKVAISAKEIEGDNIGAQVLGLFTLSTGQDIWQQTNLEHHHHHH"}, "B9": {"name": "PRT-550 (protein)", "chain": "MANQEIRYSEETPKTITSIWTKGVTPPTDFIKNEDVLHAPYIANQGWYDITKTFNGKDDLLCGAATAGNMLHWWFDQNKEEIENYLKKHPEKQKINFNGEQMFDVKEAIDTKDSQTDSKLFEYFKDKAFPYLSTKHLGVFPDHVIDMFINGYRLSLTNHGPTPVKRGTKDPRGGIFDAVFTRGDQSKLLTARHDFKEKTLNEISDLIKQELTEGKALGLSHTYANVRINHVINLWGADFNSEGNLEAIYVTDSDSNASIGMKKYYVGVNAAGKVAISAKEIEGDNIGAQVLGLFTLSTGQDIWNQTNLEHHHHHH"}, "B10": {"name": "PRT-627 (protein)", "chain": "MQITSVWTKGVTPLTPEQFRYNNEDVIHAPYLAHQGWYDITKAFDGKDNLLCGAATAGNMLHWWFDQNKEEIEAYLKKYGETQKIIFNNQELFDLKAAIDTKDSQTNSQLFNYFRDKAFPNLSARQLGVMPDLVLDMFINGYYLNVFKTQSTDVNRPYQDKDKRGGIFDAVFTRGDQTTLLTARHDLKNKGLNDISTIIKQELTEGRALALSHTYANVSISHVINLWGADFNAEGNLEAIYVTDSDANASIGMKKYFVGINAHGHVAISAKKIEGENIGAQVLGLFTLSSGKDIWQKLSLEHHHHHH"}, "B11": {"name": "PRT-655 (protein)", "chain": "MQITSVWTKGVTPLTPEQFRYNNEDVIHAPYLAHQGWYDITKAFDGKDNLLCGAATAGNMLHWWFDQNKTEIEAYLSKHPEKQKIIFNNQELFDLKAAIDTKDSQTNSQLFNYFRDKAFPNLSARQLGVMPDLVLDMFINGYYLNVFKTQSTDVNRPYQDKDKRGGIFDAVFTRGDQTTLLTARHDLKNKGLNDISTIIKQELTEGRALALSHKTGNGGSSHVINLWGADFNAEGNLEAIYVTDSDANASIGMKKYFVGINAHGHVAISAKKIEGEDVGAQVLGLFTLSSGKDIWQKLSLEHHHHHH"}, "B12": {"name": "PRT-622 (protein)", "chain": "MQITSVWTKGVTPLTPEQFRYNNEDVIHAPYLAHQGWYDITKAFDGKDNLLCGAATAGNMLHWWFDQNKTEIEAYLSKHPEKQKIIFNNQELFDLKAAIDTKDSQTNSQLFNYFRDKAFPNLSARQLGVMPDLVLDMFINGYYLNVFKTQSTDVNRPYQDKDKRGGIFDAVFTRGDQTTLLTARHDLKNKTLKEISDIIKQELQSGRALALSHTYANVSISHVINLWGADFNSEGNLIAIYVTDSDANASIGMKKYFVGINAHGHVAISAKKIEGENIGAQVLGLFTLSSGKDIWQKLSLEHHHHHH"}, "B13": {"name": "PRT-612 (protein)", "chain": "MQITSVWTKGVTPLTPEQFRYNNEDVIHAPYLAHQGWYDITKAFDGKDNLLCGAATAGNMLHWWFDQNKTEIEAYLSKHPEKQKIIFNNQELFDLRAAINSKDSQTNSQLFNYFRDKAFPNLSARQLGVMPDLVLDMFINGYYLNVFKTQSTDVNRPYQDKDKRGGIFDAVFTRGDQTTLLTARHDLKNKGLNDISTIIKQELTEGRALALSHTYANVSISHVINLWGADFNAEGNLEAIYVTDSDANASIGMKKYFVGINAHGHVAISAKKIEGENIGAQVLGLFTLSSGKDIWQKLSLEHHHHHH"}, "B14": {"name": "PRT-606 (protein)", "chain": "MQITSVWTKGVTPLTPEQFRYNNEDVIHAPYLAHQGWYDITKAFDGKDNLLCGAATAGNMLHWWFDQNKTEIEAYLSKYPDKQKIIFNNQELFDLKAAIDTKDSQTNSQLFNYFRDKAFPNLSARQLGVMPDLVLDMFINGYYLNVFKTQSTDVNRPYQDKDKRGGIFDAVFTRGDQTTLLTARHDLKNKGLNDISTIIKQELTEGRALALSHTYANVSISHVINLWGADFNAEGNLEAIYVTDSDANASIGMKKYFVGINAHGHVAISAKKIEGENIGAQVLGLFTLSSGKEIWQKLSLEHHHHHH"}},
  "data": [
    {"molecular_target": "pooled human IgG", "units": {"Enzyme Activity Endpoint Assay (purified): Fab′2": "ng/µL", "Enzyme Activity Endpoint Assay (purified): Fc": "ng/µL", "Enzyme Activity Endpoint Assay (purified): IgG": "ng/µL", "Enzyme Activity Endpoint Assay (purified): scIgG": "ng/µL", "Enzyme Activity Endpoint Assay: Fab′2": "ng/µL", "Enzyme Activity Endpoint Assay: Fc": "ng/µL", "Enzyme Activity Endpoint Assay: IgG": "ng/µL", "Enzyme Activity Endpoint Assay: scIgG": "ng/µL"}, "values": [
      {"protein": "B1", "Enzyme Activity Endpoint Assay (purified): Fab′2": 52, "Enzyme Activity Endpoint Assay (purified): Fc": 133, "Enzyme Activity Endpoint Assay (purified): IgG": 16, "Enzyme Activity Endpoint Assay (purified): scIgG": 16},
      {"protein": "B2", "Enzyme Activity Endpoint Assay: Fab′2": 21, "Enzyme Activity Endpoint Assay: Fc": 97, "Enzyme Activity Endpoint Assay: IgG": 23, "Enzyme Activity Endpoint Assay: scIgG": 42},
      {"protein": "B3", "Enzyme Activity Endpoint Assay (purified): Fab′2": 0, "Enzyme Activity Endpoint Assay (purified): Fc": 55, "Enzyme Activity Endpoint Assay (purified): IgG": 52, "Enzyme Activity Endpoint Assay (purified): scIgG": 50},
      {"protein": "B4", "Enzyme Activity Endpoint Assay (purified): Fab′2": 15, "Enzyme Activity Endpoint Assay (purified): Fc": 94, "Enzyme Activity Endpoint Assay (purified): IgG": 8, "Enzyme Activity Endpoint Assay (purified): scIgG": 56},
      {"protein": "B5", "Enzyme Activity Endpoint Assay (purified): Fab′2": 44, "Enzyme Activity Endpoint Assay (purified): Fc": 120, "Enzyme Activity Endpoint Assay (purified): IgG": 13, "Enzyme Activity Endpoint Assay (purified): scIgG": 19},
      {"protein": "B6", "Enzyme Activity Endpoint Assay (purified): Fab′2": 50, "Enzyme Activity Endpoint Assay (purified): Fc": 123, "Enzyme Activity Endpoint Assay (purified): IgG": 16, "Enzyme Activity Endpoint Assay (purified): scIgG": 17},
      {"protein": "B7", "Enzyme Activity Endpoint Assay (purified): Fab′2": 56, "Enzyme Activity Endpoint Assay (purified): Fc": 0, "Enzyme Activity Endpoint Assay (purified): IgG": 39, "Enzyme Activity Endpoint Assay (purified): scIgG": 0},
      {"protein": "B8", "Enzyme Activity Endpoint Assay (purified): Fab′2": 936, "Enzyme Activity Endpoint Assay (purified): Fc": 478, "Enzyme Activity Endpoint Assay (purified): IgG": 0, "Enzyme Activity Endpoint Assay (purified): scIgG": 0},
      {"protein": "B9", "Enzyme Activity Endpoint Assay (purified): Fab′2": 891, "Enzyme Activity Endpoint Assay (purified): Fc": 389, "Enzyme Activity Endpoint Assay (purified): IgG": 0, "Enzyme Activity Endpoint Assay (purified): scIgG": 0},
      {"protein": "B10", "Enzyme Activity Endpoint Assay (purified): Fab′2": 767, "Enzyme Activity Endpoint Assay (purified): Fc": 415, "Enzyme Activity Endpoint Assay (purified): IgG": 124, "Enzyme Activity Endpoint Assay (purified): scIgG": 187},
      {"protein": "B11", "Enzyme Activity Endpoint Assay (purified): Fab′2": 471, "Enzyme Activity Endpoint Assay (purified): Fc": 0, "Enzyme Activity Endpoint Assay (purified): IgG": 1380, "Enzyme Activity Endpoint Assay (purified): scIgG": 15},
      {"protein": "B12", "Enzyme Activity Endpoint Assay (purified): Fab′2": 823, "Enzyme Activity Endpoint Assay (purified): Fc": 423, "Enzyme Activity Endpoint Assay (purified): IgG": 0, "Enzyme Activity Endpoint Assay (purified): scIgG": 0},
      {"protein": "B13", "Enzyme Activity Endpoint Assay (purified): Fab′2": 986, "Enzyme Activity Endpoint Assay (purified): Fc": 533, "Enzyme Activity Endpoint Assay (purified): IgG": 0, "Enzyme Activity Endpoint Assay (purified): scIgG": 0},
      {"protein": "B14", "Enzyme Activity Endpoint Assay (purified): Fab′2": 737, "Enzyme Activity Endpoint Assay (purified): Fc": 406, "Enzyme Activity Endpoint Assay (purified): IgG": 0, "Enzyme Activity Endpoint Assay (purified): scIgG": 0}
    ]}
  ]
}
